The results in this text go back to article doi:10.1101/702415 (bioRxiv, 2019).

The target in this experiment is T1, Ups1 (S. cerevisiae, UniProt Q05776 1-175).
T1 sequence: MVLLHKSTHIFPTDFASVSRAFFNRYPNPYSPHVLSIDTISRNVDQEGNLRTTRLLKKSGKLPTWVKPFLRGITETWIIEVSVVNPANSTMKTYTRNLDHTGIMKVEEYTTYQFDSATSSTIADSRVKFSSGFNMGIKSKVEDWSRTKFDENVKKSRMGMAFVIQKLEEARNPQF
In words: crystal structure.

B1: Mdm35 (natural protein)
chain: MGNIMSASFAPECTDLKTKYDSCFNEWYSEKFLKGKSVENECSKQWYAYTTCVNAALVKQGIKPALDEAREEAPFENGGKLKEVDK
Take B1: the binding result was “binds”.
